Reference: patent US20250186594A1 (BRIGHT PEAK THERAPEUTICS, published 2025)
Changes are numbered by the printed parent chain. Names may count otherwise. One block for each binder: values may come before it.

Target: T1, IL-18 receptor (IL-18R) on HEK-Blue IL18R reporter cells (UniProt Q13478 19-541; O95256 20-599, limits assumed)
T1 sequence (looked up) 1: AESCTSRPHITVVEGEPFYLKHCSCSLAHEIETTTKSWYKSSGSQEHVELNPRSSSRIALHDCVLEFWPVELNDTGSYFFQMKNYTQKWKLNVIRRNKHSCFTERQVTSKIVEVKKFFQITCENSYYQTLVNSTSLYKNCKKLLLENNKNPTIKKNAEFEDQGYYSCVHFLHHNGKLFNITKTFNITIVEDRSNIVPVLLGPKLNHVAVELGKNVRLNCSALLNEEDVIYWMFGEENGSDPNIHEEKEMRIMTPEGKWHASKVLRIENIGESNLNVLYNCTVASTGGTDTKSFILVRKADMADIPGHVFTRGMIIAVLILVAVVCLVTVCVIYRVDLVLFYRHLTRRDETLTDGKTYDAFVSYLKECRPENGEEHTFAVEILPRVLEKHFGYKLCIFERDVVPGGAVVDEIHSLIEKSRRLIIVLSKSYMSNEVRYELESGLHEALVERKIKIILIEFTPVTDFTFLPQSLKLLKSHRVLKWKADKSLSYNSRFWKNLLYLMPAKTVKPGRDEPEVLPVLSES
T1 sequence (looked up) 2: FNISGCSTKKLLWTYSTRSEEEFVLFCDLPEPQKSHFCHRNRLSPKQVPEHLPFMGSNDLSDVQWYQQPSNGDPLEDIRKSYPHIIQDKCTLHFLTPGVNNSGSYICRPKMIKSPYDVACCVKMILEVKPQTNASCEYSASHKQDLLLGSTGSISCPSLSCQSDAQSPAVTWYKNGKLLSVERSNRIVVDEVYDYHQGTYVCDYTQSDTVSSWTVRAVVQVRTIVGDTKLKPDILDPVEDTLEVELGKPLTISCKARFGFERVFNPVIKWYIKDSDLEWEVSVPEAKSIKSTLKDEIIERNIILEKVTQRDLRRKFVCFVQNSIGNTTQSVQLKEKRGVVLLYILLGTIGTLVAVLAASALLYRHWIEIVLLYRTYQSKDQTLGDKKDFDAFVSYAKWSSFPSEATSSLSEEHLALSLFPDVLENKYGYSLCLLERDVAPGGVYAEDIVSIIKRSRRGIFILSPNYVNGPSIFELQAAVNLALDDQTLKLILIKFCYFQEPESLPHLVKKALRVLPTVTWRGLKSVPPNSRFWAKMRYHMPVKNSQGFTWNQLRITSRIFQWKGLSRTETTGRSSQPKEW
Assay: cell-based or functional assay

B1: IL-18 variant SEQ ID NO: 240 (E6R, V11I, C38A, K53A, T63A, C76A, C127A) (ligand)
chain: YFGKLRSKLSIIRNLNDQVLFIDQGNRPLFEDMTDSDARDNAPRTIFIISMYADSQPRGMAVAISVKCEKISTLSAENKIISFKEMNPPDNIKDTKSDIIFFQRSVPGHDNKMQFESSSYEGYFLAAEKERDLFKLILKKEDELGDRSIMFTVQNED
EC50, HEK-Blue IL18R reporter: 0.04 nM

B2: IL-18 variant SEQ ID NO: 228 (V11I, C38A, C76A, S105I, C127A) (ligand)
chain: B1 chain with R6E, A53K, A63T, S105I
EC50, HEK-Blue IL18R reporter: 5.37 nM

B6: IL-18 variant SEQ ID NO: 220 (V11I, C38A, K53A, C76A, H109A, C127A) (ligand)
chain: B1 chain with R6E, A63T, H109A
EC50, HEK-Blue IL18R reporter: 19.5 nM

B8: IL-18 variant SEQ ID NO: 204 (V11I, C38A, K53A, C76A, C127A) (ligand)
chain: B1 chain with R6E, A63T
EC50, HEK-Blue IL18R reporter: 0.98 nM

B9: IL-18 variant SEQ ID NO: 222 (K8R, V11I, C38A, C76A, Q103E, C127A) (ligand)
chain: B1 chain with R6E, K8R, A53K, A63T, Q103E
EC50, HEK-Blue IL18R reporter: 2.01 nM

B11: IL-18 variant SEQ ID NO: 221 (V11I, C38A, K53A, C76A, D110A, C127A) (ligand)
chain: B1 chain with R6E, A63T, D110A
EC50, HEK-Blue IL18R reporter: 2.02 nM

B12: IL-18 variant SEQ ID NO: 224 (V11I, C38A, C76A, Q103K, C127A) (ligand)
chain: B1 chain with R6E, A53K, A63T, Q103K
EC50, HEK-Blue IL18R reporter: 1.5 nM

B13: IL-18 variant SEQ ID NO: 215 (V11I, E31A, D37A, C38A, K53A, C76A, C127A) (ligand)
chain: B1 chain with R6E, E31A, D37A, A63T
EC50, HEK-Blue IL18R reporter: 11.9 nM

B14: IL-18 variant SEQ ID NO: 230 (K8L, E6K, V11I, C38A, K53A, T63A, C76A, C127A) (ligand)
chain: B1 chain with R6K, K8L
EC50, HEK-Blue IL18R reporter: 0.29 nM

B15: IL-18 variant SEQ ID NO: 217 (V11I, C38A, N41A, K53A, C76A, C127A) (ligand)
chain: B1 chain with R6E, N41A, A63T
EC50, HEK-Blue IL18R reporter: 11.7 nM

B16: IL-18 variant SEQ ID NO: 212 (V11I, D35A, C38A, K53A, C76A, C127A) (ligand)
chain: B1 chain with R6E, D35A, A63T
EC50, HEK-Blue IL18R reporter: 13.1 nM

Other lines, results leading:

EC50, HEK-Blue IL18R reporter: 0.4 nM
B3: IL-18 variant SEQ ID NO: 235 (E6K, K8E, V11I, C38A, K53A, T63A, C76A, Q103R, C127A) (ligand)
chain: B1 chain with R6K, K8E, Q103R

EC50, HEK-Blue IL18R reporter: 1 nM
B4: IL-18 variant SEQ ID NO: 208 (V11I, C38A, K53A, D54A, C76A, C127A) (ligand)
chain: B1 chain with R6E, D54A, A63T

EC50, HEK-Blue IL18R reporter: 0.04 nM
B5: IL-18 variant SEQ ID NO: 233 (E6K, V11I, C38A, I49R, K53A, T63A, C76A, C127A) (ligand)
chain: B1 chain with R6K, I49R

EC50, HEK-Blue IL18R reporter: 0.08 nM
B7: IL-18 variant SEQ ID NO: 238 (E6K, V11I, C38A, K53A, T63A, C76A, C127A, V153Y) (ligand)
chain: B1 chain with R6K, V153Y

EC50, HEK-Blue IL18R reporter: 0.7 nM
B10: IL-18 variant SEQ ID NO: 211 (V11I, T34A, C38A, K53A, C76A, C127A) (ligand)
chain: B1 chain with R6E, T34A, A63T

EC50, HEK-Blue IL18R reporter: 0.26 nM
B17: IL-18 variant SEQ ID NO: 234 (E6K, V11I, C38A, K53A, T63A, C76A, Q103R, C127A) (ligand)
chain: B1 chain with R6K, Q103R
